Experimental data: patent US20250296971A1, “GASTRIC INHIBITORY PEPTIDE RECEPTOR LIGANDS” (priority 2021, published 2025)
*1 amine or outer side, *2 acyl side, *3 side chain or, on linkers, in order; H or OH if unused. Bridges are numbered along the chain shown (N, C = ends). Primed or numbered codes have the meaning given here. Where no end group is shown, it is not given here. [ ]: non-standard residue; d: D form. The star is where a group is joined. NOPO = NOPO chelator, O=C(CCP(=O)(O)CN1CCN(CP(=O)(O)CO)CCN(CP(=O)(O)CO)CC1)*; (dE)(AGLU) = D-glutamic acid bearing 1-amino-1-deoxy-D-glucitol; 2,6‑lutidylidene = 2Lut, Cys-Cys crosslink via 2,6-lutidylidene; dE(AGLU) = D-glutamic acid bearing 1-amino-1-deoxy-D-glucitol; Pro(trans-4-NH2) = O=C([C@@H]1C[C@@H](N[*:3])CN1[*:1])[*:2]; DOTA = O=C(O)CN1CCN(CC(=O)O)CCN(CC(=O)*)CCN(CC(=O)O)CC1; NODAGA = O=C(O)CN1CCN(CC(=O)O)CCN(C(CCC(=O)*)C(=O)O)CC1; 2Lut = 2,6-lutidylidene bridge between two thiols; N(CH2CH2CO)Gly = O=C(CN(CCC(=O)[*:3])[*:1])[*:2]; Trp(5-Cl) = N[C@@H](Cc1c[nH]c2ccc(Cl)cc12)C(=O)O; Pyridine(2,6-diCH2) = c1cc(C[*:1])nc(C[*:2])c1; 2Lut″ = 2,6-lutidylidene linking two thiols; APAc = 4-amino-1-carboxymethylpiperidine; mXylylene = c1cc(C[*:1])cc(C[*:2])c1; Glutaryl = O=C(CCCC(=O)[*:2])[*:1]; PEG6 = NCCOCCOCCOCCOCCOCCOCCC(=O)O; AGLU = 1-amino-1-deoxy-D-glucitol; Hyp = O=C(O)[C@@H]1C[C@@H](O)CN1; pS = N[C@@H](COP(=O)(O)O)C(=O)O; dGlu(AGLU) = not defined here; Aic = NC1(C(=O)O)Cc2ccccc2C1; hCys = N[C@@H](CCS)C(=O)O; hSer = N[C@@H](CCO)C(=O)O; Ac5c = NC1(C(=O)O)CCCC1; Api = NC1(C(=O)O)CCNCC1; Dab = NCC[C@H](N)C(=O)O; Thp = NC1(C(=O)O)CCOCC1; AEEA = NCCOCCOCC(=O)O; Aib = CC(C)(N)C(=O)O

Molecular target: human Gastric Inhibitory Peptide Receptor (human) (UniProt P48546)
Sequence (P48546 22-466 limits assumed): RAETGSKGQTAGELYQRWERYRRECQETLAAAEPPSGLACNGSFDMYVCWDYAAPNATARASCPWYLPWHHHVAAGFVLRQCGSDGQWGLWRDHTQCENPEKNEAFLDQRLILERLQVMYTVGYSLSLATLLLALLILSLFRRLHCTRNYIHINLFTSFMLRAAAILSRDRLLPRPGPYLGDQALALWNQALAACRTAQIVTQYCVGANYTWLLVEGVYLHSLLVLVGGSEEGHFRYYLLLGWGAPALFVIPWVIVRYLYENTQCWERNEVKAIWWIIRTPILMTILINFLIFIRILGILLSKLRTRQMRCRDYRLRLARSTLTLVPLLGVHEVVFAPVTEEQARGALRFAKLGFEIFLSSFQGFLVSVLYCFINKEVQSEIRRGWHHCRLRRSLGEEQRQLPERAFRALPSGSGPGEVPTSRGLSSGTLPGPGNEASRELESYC
Test: FACS competition with GIP-057 on CHO-K1-hGIPR cells; pIC50 category A: >8.0

Binder	pIC50 [pic50]
Ac-DW[Trp(5-Cl)][N(CH2CH2CO)Gly]E[dL]C[Thp]LIC-NH2 (linker 7-11 via Pyridine(2,6-diCH2)) [Ac-Asp-Trp-5Clw-Nglu-Glu-leu-[Cys(2Lut)-Thp-Leu-Ile-Cys]-NH2]	> 8
Ac-DW[Trp(5-Cl)][Hyp]D[dL]C[Thp]LIC-NH2 (linker 7-11 via Pyridine(2,6-diCH2)) [Ac-Asp-Trp-5Clw-Hyp-Asp-leu-[Cys(2Lut)-Thp-Leu-Ile-Cys]-NH2]	> 8
W[Trp(5-Cl)]PE[dL]C[Aib]LIC-NH2 (linker 6-10 via mXylylene; not fully specified (N-terminus); printed as HO-Succinyl-Trp-5Clw-Pro-Glu-leu-[Cys(3MeBn)-Aib-Leu-Ile-Cys]-NH2) [HO-Succinyl-Trp-5Clw-Pro-Glu-leu-[Cys(3MeBn)-Aib-Leu-Ile-Cys]-NH2]	> 8
{AGLU-Glutaryl}-DW[Trp(5-Cl)][Pro(trans-4-NH2)]E[dL]C[Dab](DOTA)LIC-{APAc-dE(AGLU)-NH2} (linker 7-11 via Pyridine(2,6-diCH2)) [AGLU-Glutar-Asp-Trp-5Clw-Tap-Glu-leu-[Cys(2Lut)-Dab(DOTA)-Leu-Ile-Cys]-APAc-glu(AGLU)-NH2]	> 8
Ac-[hSer]W[Trp(5-Cl)][Hyp]E[dL]C[Thp]LIC-NH2 (linker 7-11 via Pyridine(2,6-diCH2); SMILES CC[C@H](C)[C@@H]1NC(=O)[C@H](CC(C)C)NC(=O)C2(CCOCC2)NC(=O)[C@@H](NC(=O)[C@@H](CC(C)C)NC(=O)[C@H](CCC(=O)O)NC(=O)[C@@H]2C[C@@H](O)CN2C(=O)[C@H](Cc2c[nH]c3ccc(Cl)cc23)NC(=O)[C@H](Cc2c[nH]c3ccccc23)NC(=O)[C@H](CCO)NC(C)=O)CSCc2cccc(n2)CSC[C@@H](C(N)=O)NC1=O) [Ac-Hse-Trp-5Clw-Hyp-Glu-leu-[Cys(2Lut)-Thp-Leu-Ile-Cys]-NH2]	> 8
Ac-DW[Trp(5-Cl)][Hyp]E[dL][hCys][Thp]LI[hCys]-NH2 (linker 7-11 via Pyridine(2,6-diCH2)) [Ac-Asp-Trp-5Clw-Hyp-Glu-leu-[Hcy(2Lut)-Thp-Leu-Ile-Hcy]-NH2]	> 8
{AGLU-Glutaryl}-DW[Trp(5-Cl)][Pro(trans-4-NH2)]E[dL]C[Api](NODAGA)LIC-{APAc-dE(AGLU)-NH2} (linker 7-11 via Pyridine(2,6-diCH2)) [AGLU-Glutar-Asp-Trp-5Clw-Tap-Glu-leu-[Cys(2Lut)-Apc(NODAGA)-Leu-Ile-Cys]-APAc-glu(AGLU)-NH2]	> 8
Ac-DW[Trp(5-Cl)][Hyp]E[dL]C[Aic]LIC-NH2 (linker 7-11 via Pyridine(2,6-diCH2)) [Ac-Asp-Trp-5Clw-Hyp-Glu-leu-[Cys(2Lut)-Aic-Leu-Ile-Cys]-NH2]	> 8
{DOTA-dGlu(AGLU)-AEEA}-DW[Trp(5-Cl)][Pro(trans-4-NH2)]E[dL]C[Thp]LIC-{APAc-dGlu(AGLU)-NH2} (linker 7-11 via 2Lut; reading uncertain) [DOTA-glu(AGLU)-O2Oc-Asp-Trp-5Clw-Tap-Glu-leu-[Cys(2Lut)-Thp-Leu-Ile-Cys]-APAc-glu(AGLU)-NH2]	> 8
Ac-DW[Trp(5-Cl)][Hyp]E[dL]C[Thp]LI[hCys]-NH2 (linker 7-11 via Pyridine(2,6-diCH2)) [Ac-Asp-Trp-5Clw-Hyp-Glu-leu-[Cys(2Lut)-Thp-Leu-Ile-Hcy]-NH2]	> 8
DW[Trp(5-Cl)][Pro(trans-4-NH2)]E[dL]C[Thp]LIC-{APAc-(dE)(AGLU)-NH2} (linker 7-11 via Pyridine(2,6-diCH2); not fully specified (N-terminus); printed as DOTA-O2Oc-glu(AGLU)-Asp-Trp-5Clw-Tap-Glu-leu-[Cys(2Lut)-Thp-Leu-Ile-Cys]-APAc-glu(AGLU)-NH2) [DOTA-O2Oc-glu(AGLU)-Asp-Trp-5Clw-Tap-Glu-leu-[Cys(2Lut)-Thp-Leu-Ile-Cys]-APAc-glu(AGLU)-NH2]	> 8
Ac-QW[Trp(5-Cl)][Hyp]E[dL]C[Thp]LIC-NH2 (linker 7-11 via 2Lut″) [Ac-Gln-Trp-5Clw-Hyp-Glu-leu-[Cys(2Lut)-Thp-Leu-Ile-Cys]-NH2]	> 8
{DOTA-dE(AGLU)}-DW[Trp(5-Cl)][Pro(trans-4-NH2)]E[dL]C[Thp]LIC-{APAc-dE(AGLU)-NH2} (linker 7-11 via Pyridine(2,6-diCH2)) [DOTA-glu(AGLU)-Asp-Trp-5Clw-Tap-Glu-leu-[Cys(2Lut)-Thp-Leu-Ile-Cys]-APAc-glu(AGLU)-NH2]	> 8
Ac-DW[Trp(5-Cl)][Hyp]N[dL]C[Thp]LIC-NH2 (linker 7-11 via Pyridine(2,6-diCH2)) [Ac-Asp-Trp-5Clw-Hyp-Asn-leu-[Cys(2Lut)-Thp-Leu-Ile-Cys]-NH2]	> 8
Ac-DW[Trp(5-Cl)][Hyp]E[dL][hCys][Thp]LIC-NH2 (linker 7-11 via Pyridine(2,6-diCH2)) [Ac-Asp-Trp-5Clw-Hyp-Glu-leu-[Hcy(2Lut)-Thp-Leu-Ile-Cys]-NH2]	> 8
Ac-DW[Trp(5-Cl)][Hyp]Q[dL]C[Thp]LIC-NH2 (linker 7-11 via Pyridine(2,6-diCH2)) [Ac-Asp-Trp-5Clw-Hyp-Gln-leu-[Cys(2Lut)-Thp-Leu-Ile-Cys]-NH2]	> 8
{DOTA-dGlu(AGLU)-PEG6}-DW[Trp(5-Cl)][Pro(trans-4-NH2)]E[dL]C[Thp]LIC-{APAc-dGlu(AGLU)-NH2} (linker 7-11 via 2Lut; reading uncertain) [DOTA-glu(AGLU)-PEG6-Asp-Trp-5Clw-Tap-Glu-leu-[Cys(2Lut)-Thp-Leu-Ile-Cys]-APAc-glu(AGLU)-NH2]	> 8
{AGLU-Glutaryl}-DW[Trp(5-Cl)][Pro(trans-4-NH2)]E[dL]CK(DOTA)LIC-{APAc-dE(AGLU)-NH2} (linker 7-11 via 2,6‑lutidylidene) [AGLU-Glutar-Asp-Trp-5Clw-Tap-Glu-leu-[Cys(2Lut)-Lys(DOTA)-Leu-Ile-Cys]-APAc-glu(AGLU)-NH2]	> 8
Ac-[pS]W[Trp(5-Cl)][Hyp]E[dL]C[Thp]LIC-NH2 (linker 7-11 via Pyridine(2,6-diCH2); SMILES CC[C@H](C)[C@@H]1NC(=O)[C@H](CC(C)C)NC(=O)C2(CCOCC2)NC(=O)[C@@H](NC(=O)[C@@H](CC(C)C)NC(=O)[C@H](CCC(=O)O)NC(=O)[C@@H]2C[C@@H](O)CN2C(=O)[C@H](Cc2c[nH]c3ccc(Cl)cc23)NC(=O)[C@H](Cc2c[nH]c3ccccc23)NC(=O)[C@H](COP(=O)(O)O)NC(C)=O)CSCc2cccc(n2)CSC[C@@H](C(N)=O)NC1=O) [Ac-Pse-Trp-5Clw-Hyp-Glu-leu-[Cys(2Lut)-Thp-Leu-Ile-Cys]-NH2]	> 8
Ac-DW[Trp(5-Cl)][Hyp]E[dL]C[Ac5c]LIC-NH2 (linker 7-11 via Pyridine(2,6-diCH2)) [Ac-Asp-Trp-5Clw-Hyp-Glu-leu-[Cys(2Lut)-Eca-Leu-Ile-Cys]-NH2]	> 8
W[Trp(5-Cl)][Pro(trans-4-NH2)]E[dL]C[Api](DOTA)LIC-{APAc-dE(AGLU)-NH2} (linker 6-10 via 2Lut; not fully specified (N-terminus)) [HO-Succinyl-Trp-5Clw-Tap-Glu-leu-[Cys(2Lut)-Apc(DOTA)-Leu-Ile-Cys]-APAc-glu(AGLU)-NH2]	> 8
{AGLU-Glutaryl}-DW[Trp(5-Cl)][Pro(trans-4-NH2)]E[dL]C[Api](NOPO)LIC-{APAc-dE(AGLU)-NH2} (linker 7-11 via Pyridine(2,6-diCH2)) [AGLU-Glutar-Asp-Trp-5Clw-Tap-Glu-leu-[Cys(2Lut)-Apc(NOPO)-Leu-Ile-Cys]-APAc-glu(AGLU)-NH2]	> 8
W[Trp(5-Cl)]PE[dL]C[Thp]LIC-NH2 (linker 6-10 via mXylylene; not fully specified (N-terminus); printed as HO-Succinyl-Trp-5Clw-Pro-Glu-leu-[Cys(3MeBn)-Thp-Leu-Ile-Cys]-NH2) [HO-Succinyl-Trp-5Clw-Pro-Glu-leu-[Cys(3MeBn)-Thp-Leu-Ile-Cys]-NH2]	> 8
